Experimental data: patent publication US20250282890A1 (TECHNISCHE UNIVERSIT T M NCHEN, published 2025)
Where a chain is given by its changes, count along the chain named.

B1: 6-5D3-hFab (Fab, V domains shown)
VH: EVQLVESGGGLVQPGGSLRLSCAASGYAFNTSWMNWVRQAPGKGLEWISRIYPGDGDTNYNGKFKGKATISADKSKNTLYLQMNSLRAEDTAVYYCARGEWYLYYFDYWGQGTLVTVSS
VL: DIQMTQSPSSLSASVGDRVTITCSASQGINNFLTWYQQKPGKALKLLIYYTSSLHSGVPSRFSGSGSGTDYTLTISSLQPEDFATYYCQQYSNLPFTFGQGTKVEIK
notes: Humanized Fab with a TwinStrep tag at the C-terminus of the CH1 constant domain; also called version 6 of 5D3-Fab; antibody 6 (Fab format)
B2: 5-5D3-hFab (Fab, V domains shown)
VH: QVQLVQSGPEVKKPGASVRLSCKASGYAFNTSWMNWVRQAPGQGLEWIGRIYPGDGDTNYNGKFKGKATMTADKSTNTAYMELRSLRSDDTAVYYCGRGEWYLYYFDYWGQGTLVTVSS
VL: B1 VL with L11V, T22S, P40L, K45Q, Q100P, E105D
notes: Humanized Fab with a TwinStrep tag at the C-terminus of the CH1 constant domain; also called version 5 of 5D3-Fab; antibody 5
B3: 2-5D3-hFab (Fab, V domains shown)
VH: B2 VH with P9A, R19K, L20V, W47Y, T76I, N77S, A79V, L83V, S85R, G97A
VL: B1 VL with Q38H, K39E, S77T, Q100G
notes: Humanized Fab with a TwinStrep tag at the C-terminus of the CH1 constant domain; also called version 2 of 5D3-Fab; antibody 2
B4: 2-5D3-IgG1 (antibody, V domains shown)
VH: B2 VH with P9A, R19K, L20V, W47Y, T76I, N77S, A79V, L83V, S85R, G97A
VL: B1 VL with Q38H, K39E, S77T, Q100G
notes: also called full-length humanized 5D3 version 2
B5: 5-5D3-IgG1 (antibody, V domains shown)
VH: B2 VH
VL: B1 VL with L11V, T22S, P40L, K45Q, Q100P, E105D
notes: also called full-length humanized 5D3 version 5
B6: 6-5D3-IgG1 (antibody, V domains shown)
VH: B1 VH
VL: B1 VL
modifications: N-glycosylation at VH N30
notes: also called h5D3; humanized 5D3
B7: h5D3 variant HVg2 (antibody, human IgG1, V domains shown)
VH: B1 VH with N30Q, G56A, G62A
VL: B1 VL
notes: Full-length human IgG1 kappa variant of h5D3 (antibody 6)
B8: h5D3 variant HVg3 (antibody, human IgG1, V domains shown)
VH: B1 VH with N30Q, D55E, D57E, G62A
VL: B1 VL
notes: as for B7
B9: h5D3 variant HVg4 (antibody, human IgG1, V domains shown)
VH: B1 VH with N30Q, D55E, G62A
VL: B1 VL
notes: as for B7
B10: h5D3 variant HVg5 (antibody, human IgG1, V domains shown)
VH: B1 VH with N30Q, D55E, D57S, G62A
VL: B1 VL
notes: as for B7
B11: h5D3 variant HVg7 (antibody, human IgG1, V domains shown)
VH: B1 VH with N30Q
VL: B1 VL
notes: as for B7
B12: h5D3 variant LVg2 (antibody, human IgG1, V domains shown)
VH: B1 VH
VL: B1 VL with N30E
notes: as for B7
B13: h5D3 variant LVg2HVg2 (antibody, human IgG1, V domains shown)
VH: B1 VH with N30Q, G56A, G62A
VL: B1 VL with N30E
notes: as for B7
B14: h5D3 variant LVg2HVg3 (antibody, human IgG1, V domains shown)
VH: B1 VH with N30Q, D55E, D57E, G62A
VL: B1 VL with N30E
notes: as for B7
B15: h5D3 variant LVg2HVg4 (antibody, human IgG1, V domains shown)
VH: B1 VH with N30Q, D55E, G62A
VL: B1 VL with N30E
notes: as for B7
B16: h5D3 variant LVg2HVg5 (antibody, human IgG1, V domains shown)
VH: B1 VH with N30Q, D55E, D57S, G62A
VL: B1 VL with N30E
notes: as for B7
B17: h5D3 variant LVg2HVg7 (antibody, human IgG1, V domains shown)
VH: B1 VH with N30Q
VL: B1 VL with N30E
notes: as for B7

What follows are binders tested against T1, human PSMA displayed on the surface of LNCaP cells (human, UniProt Q04609 1-750) (assay: flow cytometry on LNCaP cells, Fab titrated).
T1 construct: Endogenous PSMA on living LNCaP cells; also called PSMA-positive LNCaP cells
T1 sequence (Q04609 whole entry): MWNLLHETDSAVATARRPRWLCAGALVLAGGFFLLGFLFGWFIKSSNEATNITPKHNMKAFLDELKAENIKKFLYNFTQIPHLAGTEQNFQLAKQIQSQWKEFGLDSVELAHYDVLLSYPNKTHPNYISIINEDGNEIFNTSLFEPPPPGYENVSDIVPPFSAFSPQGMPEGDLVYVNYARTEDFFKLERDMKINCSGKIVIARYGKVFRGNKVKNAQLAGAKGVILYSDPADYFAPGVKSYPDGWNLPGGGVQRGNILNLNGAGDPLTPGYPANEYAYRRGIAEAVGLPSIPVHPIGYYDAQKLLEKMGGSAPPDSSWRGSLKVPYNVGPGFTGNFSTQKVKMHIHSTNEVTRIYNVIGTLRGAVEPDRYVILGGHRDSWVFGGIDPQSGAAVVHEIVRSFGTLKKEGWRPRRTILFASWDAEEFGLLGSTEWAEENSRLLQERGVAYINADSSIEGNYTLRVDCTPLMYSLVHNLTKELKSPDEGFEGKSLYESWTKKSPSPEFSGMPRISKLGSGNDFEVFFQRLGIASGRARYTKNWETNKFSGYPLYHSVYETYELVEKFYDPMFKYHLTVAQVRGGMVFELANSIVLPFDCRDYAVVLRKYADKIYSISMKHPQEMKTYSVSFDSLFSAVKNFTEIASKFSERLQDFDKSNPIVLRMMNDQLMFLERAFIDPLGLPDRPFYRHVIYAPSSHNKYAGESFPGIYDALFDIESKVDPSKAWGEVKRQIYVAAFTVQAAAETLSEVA
Protocol: (§1) Flow cytometry was used to analyze affinity and specificity of 5D3-hFabs for PSMA in its physiological environment, i.e., at the surface of living cells. To this end, LNCaP and DU145 cells were used as representatives of PSMA-positive and PSMA-negative cell lines, respectively, in a protocol described previously (Novakova, Belousova et al. (2020), Int. J. Mol. Sci., 21(18):6672). Briefly, cells were treated by three-fold dilution series of 5D3-hFabs in the concentration range 6000 nM-0.42 pM. Bound 5D3-hFabs were detected by the combination of anti-Strep tag antibody and goat anti-mouse secondary antibody conjugated to Alexa Fluor 647. Cell samples were immediately analyzed using a LSRFortessa flow cytometer.

Row | Binder | Kd [nM]
1 | B1 | 2.8
2 | B2 | 4.1
3 | B3 | 3

The binders below were run against T1, human PSMA displayed on the surface of … (assay: flow cytometry on LNCaP cells, IgG1 titrated).
Protocol: as §1
Flow cytometry was used to analyze affinity and specificity of humanized 5D3-IgG1s for PSMA in its physiological environment as described above and data are shown in FIG. 11 and Table 2.

Row | Binder | Kd [nM]
4 | B4 | 0.64
5 | B5 | 0.77
6 | B6 | 0.56

These binders were tested against T2, recombinant human PSMA (prostate-specific membrane antigen), biotin-tagged (human, UniProt Q04609 44-750, biotin tag (site not stated)) (assay: native ELISA, streptavidin-captured biotin-tagged PSMA, Fab titrated).
T2 construct: also called biotin-tagged PSMA; biotin-labelled PSMA
T2 sequence (Q04609 44-750 limits assumed): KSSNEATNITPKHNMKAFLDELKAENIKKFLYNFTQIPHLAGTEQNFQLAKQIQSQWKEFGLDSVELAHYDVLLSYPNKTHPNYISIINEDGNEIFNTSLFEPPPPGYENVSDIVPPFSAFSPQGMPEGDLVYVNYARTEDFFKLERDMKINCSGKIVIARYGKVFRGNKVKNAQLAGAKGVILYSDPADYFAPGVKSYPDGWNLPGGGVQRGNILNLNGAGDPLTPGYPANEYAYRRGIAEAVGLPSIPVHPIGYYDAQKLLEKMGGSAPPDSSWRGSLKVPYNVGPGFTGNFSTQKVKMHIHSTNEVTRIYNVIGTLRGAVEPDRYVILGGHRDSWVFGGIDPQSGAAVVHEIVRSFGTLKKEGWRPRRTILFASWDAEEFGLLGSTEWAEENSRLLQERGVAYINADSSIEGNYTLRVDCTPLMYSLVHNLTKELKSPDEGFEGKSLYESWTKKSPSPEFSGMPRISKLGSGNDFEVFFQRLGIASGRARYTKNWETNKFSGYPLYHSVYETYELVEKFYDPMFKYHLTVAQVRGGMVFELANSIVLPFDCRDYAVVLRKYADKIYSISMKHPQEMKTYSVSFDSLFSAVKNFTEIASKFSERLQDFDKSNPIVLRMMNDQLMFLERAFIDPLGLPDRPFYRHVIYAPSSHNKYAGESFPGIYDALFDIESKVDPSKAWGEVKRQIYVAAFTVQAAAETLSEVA
Protocol: (§2) Native ELISA was used to measure affinity of 5D3-hFabs for human PSMA. Experiments were performed in 96-well MaxiSorp plates coated with streptavidin complexed with biotin-tagged PSMA. Purified 5D3-hFabs were applied in 2-fold dilution series in the concentration range of 2000 nM-0.95 pM and goat anti-human secondary antibody conjugated to horseradish peroxidase, together with the TMB substrate, was used for 5D3-hFabs detection. Data were processed using a Prism 6 software (GraphPad, San Diego, CA) and binding curves fitted using an embedded non-linear curve-fitting algorithm (FIG. 4, Table 1). Affinity of all variants tested was in a single-digit nanomolar range (1.8-2.7 nM) and virtually identical to the parent murine and chimeric Fabs, documenting successful humanization results.

Row | Binder | Kd [nM]
7 | B1 | 1.8
8 | B2 | 1.8
9 | B3 | 2.7

Each binder was assayed against T2, recombinant human PSMA … (assay: native ELISA, streptavidin-captured biotin-tagged PSMA, IgG1 titrated).
Protocol: as §2
Native ELISA was used to measure affinity of humanized 5D3-IgG1s for human PSMA in an experimental setup described above and binding curves together with corresponding KD values shown in FIG. 10 and Table 2, respectively. Affinity of all variants tested was in a picomolar range (260-380 pM) and virtually identical to the parent murine and chimeric full-length IgG1s, documenting successful outcome of the humanization process.

Row | Binder | Kd [nM]
10 | B4 | 0.26
11 | B5 | 0.39
12 | B6 | 0.38

What follows are binders tested against T2, recombinant human PSMA … (assay: ELISA on plates coated with recombinant PSMA, column head 'ELISA (nM)').
Protocol: (§3) FIG. 16—Affinities of optimized full-length antibodies determined by ELISA. Plates coated with recombinant PSMA were probed with two-fold dilution series of individual antibodies and binding was visualized using goat anti-human secondary antibody conjugated to horseradish peroxidase together with the TMB substrate. Binding curves were fitted using a non-linear regression algorithm.
(§4) Also, the affinity of the optimized humanized 5D3 variants was determined by ELISA (FIG. 16, Table 4).

Row | Binder | Kd [nM]
13 | B6 | 0.25
14 | B7 | 0.34
15 | B8 | 0.93
16 | B9 | 0.36
17 | B10 | 0.06
18 | B11 | 0.35
19 | B12 | 0.29
20 | B13 | 0.47
21 | B14 | 2.69
22 | B15 | 0.5
23 | B16 | 0.2
24 | B17 | 0.37

Each binder was assayed against T2, recombinant human PSMA … (assay: ELISA on plates coated with recombinant PSMA, two-fold dilution series, goat anti-human-HRP and TMB).

Row | Binder | EC50 (read off the curve) [nM]
25 | B4 | ~0.3
26 | B5 | ~0.4
27 | B6 | ~0.4

These binders were tested against T2, recombinant human PSMA … (assay: PSMA ELISA on plates coated with recombinant PSMA, two-fold dilution series, goat anti-human-HRP and TMB).

Row | Binder | EC50 (read off the curve) [nM]
28 | B6 | ~0.4
29 | B7 | ~0.4
30 | B8 | ~0.9
31 | B12 | ~0.4
32 | B13 | ~0.5
33 | B14 | ~3

Target: T2, recombinant human PSMA …
Assay: as above
Remark: another data set of the same source
Protocol: as §3, §4

Row | Binder | EC50 (read off the curve) [nM]
34 | B6 | ~0.5
35 | B9 | ~0.4
36 | B10 | ~0.2
37 | B11 | ~0.4
38 | B15 | ~0.5
39 | B16 | ~0.4
40 | B17 | ~0.4

The binders below were run against T2, recombinant human PSMA … (assay: ELISA on plates coated with recombinant PSMA (biotin-tagged, captured on streptavidin), two-fold dilution series, goat anti-human-HRP and TMB).
Protocol: as §3, with “4—Affinity” for “16—Affinities”, “Fab variants” for “optimized full-length antibodies”, “fragments” for “antibodies”, “binding” for “binding was”
as §2

Row | Binder | EC50 (read off the curve) [nM]
41 | B1 | ~4
42 | B2 | ~4
43 | B3 | ~2

The binders below were run against T1, human PSMA displayed on the surface of … (assay: flow cytometry titration on cells (three-fold dilution series, anti-Strep antibody and goat anti-mouse Alexa Fluor 647); the sheet does not name the cell line, the text gives the curves as binding to cell-surface PSMA (LNCaP)).
Protocol: FIG. 5—Affinity of Fab variants determined by flow cytometry. LNCaP (PSMA-positive) and DU145 (PSMA-negative) cell lines were probed with three-fold dilution series of tested Fab variants and bound antibodies visualized by the combination of anti-Strep and goat anti-mouse Alexa-Fluor647 antibodies. Cell samples were analyzed using a LSRFortessa flow cytometer and binding curves were fitted using a non-linear regression algorithm.
as §1

Row | Binder | EC50 (read off the curve) [nM]
44 | B1 | ~3
45 | B2 | ~4
46 | B3 | ~3
